Experiments:
[1] = system: AncSZ; test: phosphorylation enrichment, bacterial display (enrichment ratio); higher = better substrate or ligand; peptides without Tyr show the background
[2] = target: EPHB1 (UniProt P54762); test: as above
[3] = target: EPHB2 (UniProt P29323); test: as above
[4] = target: FGFR1 (UniProt P11362); test: as above
[5] = target: FGFR3 (UniProt P22607); test: as above
[6] = system: Fer (mouse); test: as above
[7] = target: Fes (UniProt P07332); test: as above
[8] = target: Fyn (UniProt P06241); test: as above
[9] = target: Hck (UniProt P08631); test: as above
[10] = target: Jak2 (UniProt O60674); test: as above
[11] = target: MERTK (UniProt Q12866); test: as above
[12] = system: c-Abl (mouse); test: as above
[13] = system: c-Src; test: as above
[14] = target: Grb2 SH2 (UniProt P62993); test: SH2 binding enrichment of the phosphorylated peptide, bacterial display (enrichment ratio); higher = better substrate or ligand; peptides without Tyr show the background
[15] = target: SHP2-C SH2; test: as above
[16] = target: c-Src SH2; test: as above
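Wherever SH2 binding enrichment of the phosphorylated peptide, bacterial display is given: peptide library displayed on the E. coli surface as eCPX fusions, selected cells deep-sequenced, score is each peptide's frequency after selection divided by its frequency in the input.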
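Wherever phosphorylation enrichment, bacterial display is given: 11-residue human phosphosite peptides and single-mutation variants displayed on the E. coli surface, counted by deep sequencing, each peptide's frequency after selection divided by its frequency in the unselected input library; frequency after pTyr selection over input frequency; kinase dosed for 20-30% of maximal phosphorylation in three min.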

Sequence of Jak2 (O60674 whole entry, looked up): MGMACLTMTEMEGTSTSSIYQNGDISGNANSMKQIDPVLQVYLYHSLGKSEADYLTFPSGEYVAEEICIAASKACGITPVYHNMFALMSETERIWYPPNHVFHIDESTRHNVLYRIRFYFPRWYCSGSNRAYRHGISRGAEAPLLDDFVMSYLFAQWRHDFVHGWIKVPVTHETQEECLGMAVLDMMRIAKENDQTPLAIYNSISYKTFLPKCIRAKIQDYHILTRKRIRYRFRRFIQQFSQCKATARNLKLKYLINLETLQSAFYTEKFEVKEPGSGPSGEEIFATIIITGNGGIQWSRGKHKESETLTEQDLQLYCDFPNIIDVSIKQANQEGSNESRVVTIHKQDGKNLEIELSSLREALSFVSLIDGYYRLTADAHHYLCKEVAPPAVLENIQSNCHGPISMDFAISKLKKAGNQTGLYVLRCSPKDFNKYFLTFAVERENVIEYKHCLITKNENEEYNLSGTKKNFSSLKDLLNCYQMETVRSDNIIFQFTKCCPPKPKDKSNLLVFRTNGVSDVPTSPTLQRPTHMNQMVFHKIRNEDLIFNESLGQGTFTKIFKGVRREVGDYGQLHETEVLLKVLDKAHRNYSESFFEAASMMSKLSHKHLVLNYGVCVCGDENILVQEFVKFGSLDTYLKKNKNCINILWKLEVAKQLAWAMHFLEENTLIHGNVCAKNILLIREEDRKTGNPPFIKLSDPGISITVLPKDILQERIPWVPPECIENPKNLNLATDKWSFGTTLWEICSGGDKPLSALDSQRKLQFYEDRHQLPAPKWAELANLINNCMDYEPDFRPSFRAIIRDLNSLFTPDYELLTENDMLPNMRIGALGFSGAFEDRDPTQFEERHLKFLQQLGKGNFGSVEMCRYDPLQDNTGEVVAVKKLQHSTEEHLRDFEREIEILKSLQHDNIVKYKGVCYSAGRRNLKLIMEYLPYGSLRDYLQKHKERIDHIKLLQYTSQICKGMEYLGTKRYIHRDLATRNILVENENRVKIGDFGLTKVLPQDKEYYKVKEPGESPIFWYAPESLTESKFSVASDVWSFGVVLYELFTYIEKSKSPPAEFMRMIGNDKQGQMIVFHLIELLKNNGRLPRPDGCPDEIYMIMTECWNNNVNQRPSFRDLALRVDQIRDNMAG
Sequence of Hck (P08631 whole entry, looked up): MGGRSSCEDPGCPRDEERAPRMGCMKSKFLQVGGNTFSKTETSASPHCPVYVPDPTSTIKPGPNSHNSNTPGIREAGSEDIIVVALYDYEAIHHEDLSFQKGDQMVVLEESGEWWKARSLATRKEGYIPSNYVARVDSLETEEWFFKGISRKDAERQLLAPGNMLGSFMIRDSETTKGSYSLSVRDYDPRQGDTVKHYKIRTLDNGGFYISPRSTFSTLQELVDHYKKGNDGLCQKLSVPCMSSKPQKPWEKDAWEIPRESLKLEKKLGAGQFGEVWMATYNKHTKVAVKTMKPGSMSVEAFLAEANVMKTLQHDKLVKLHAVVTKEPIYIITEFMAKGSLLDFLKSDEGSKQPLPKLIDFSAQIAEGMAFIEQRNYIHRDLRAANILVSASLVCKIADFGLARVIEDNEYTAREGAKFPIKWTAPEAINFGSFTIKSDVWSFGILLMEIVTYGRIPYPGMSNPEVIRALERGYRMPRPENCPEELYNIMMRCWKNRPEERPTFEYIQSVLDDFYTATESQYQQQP
Sequence of Fyn (P06241 whole entry, looked up): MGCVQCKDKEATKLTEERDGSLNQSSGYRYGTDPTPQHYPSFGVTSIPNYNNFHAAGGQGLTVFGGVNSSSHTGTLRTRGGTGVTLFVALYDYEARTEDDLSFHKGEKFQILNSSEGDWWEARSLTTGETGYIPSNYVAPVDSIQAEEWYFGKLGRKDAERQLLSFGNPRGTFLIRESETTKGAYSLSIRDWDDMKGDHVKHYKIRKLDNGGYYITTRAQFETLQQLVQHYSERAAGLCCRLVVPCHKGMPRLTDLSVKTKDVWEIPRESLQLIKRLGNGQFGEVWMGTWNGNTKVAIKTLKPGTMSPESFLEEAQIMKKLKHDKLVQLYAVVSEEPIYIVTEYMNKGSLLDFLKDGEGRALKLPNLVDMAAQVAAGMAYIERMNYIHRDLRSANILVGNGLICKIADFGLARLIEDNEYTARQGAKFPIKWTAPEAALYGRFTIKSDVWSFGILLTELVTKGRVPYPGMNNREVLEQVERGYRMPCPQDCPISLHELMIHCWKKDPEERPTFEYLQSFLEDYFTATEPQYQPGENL
Sequence of FGFR3 (P22607 whole entry, looked up): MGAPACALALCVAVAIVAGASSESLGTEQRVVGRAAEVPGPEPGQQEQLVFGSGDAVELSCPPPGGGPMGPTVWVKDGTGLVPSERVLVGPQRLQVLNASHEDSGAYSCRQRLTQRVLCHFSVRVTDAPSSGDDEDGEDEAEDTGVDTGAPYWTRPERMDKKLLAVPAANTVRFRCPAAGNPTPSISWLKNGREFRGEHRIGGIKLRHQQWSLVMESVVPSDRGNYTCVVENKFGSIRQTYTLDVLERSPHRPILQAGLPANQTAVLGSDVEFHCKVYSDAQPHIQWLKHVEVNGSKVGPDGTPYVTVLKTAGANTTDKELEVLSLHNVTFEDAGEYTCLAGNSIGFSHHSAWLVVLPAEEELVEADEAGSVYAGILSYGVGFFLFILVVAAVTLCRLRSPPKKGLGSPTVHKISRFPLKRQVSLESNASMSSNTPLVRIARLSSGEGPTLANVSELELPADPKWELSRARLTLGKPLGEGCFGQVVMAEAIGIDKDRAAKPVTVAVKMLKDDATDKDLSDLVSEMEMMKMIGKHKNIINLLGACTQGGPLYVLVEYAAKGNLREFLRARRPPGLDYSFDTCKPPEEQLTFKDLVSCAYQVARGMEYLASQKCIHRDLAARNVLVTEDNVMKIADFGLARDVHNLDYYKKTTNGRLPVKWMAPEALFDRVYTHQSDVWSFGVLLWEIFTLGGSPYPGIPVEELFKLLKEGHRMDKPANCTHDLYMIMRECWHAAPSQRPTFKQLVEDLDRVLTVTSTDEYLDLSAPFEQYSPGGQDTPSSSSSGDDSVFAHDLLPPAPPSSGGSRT
Sequence of Fes (P07332 whole entry, looked up): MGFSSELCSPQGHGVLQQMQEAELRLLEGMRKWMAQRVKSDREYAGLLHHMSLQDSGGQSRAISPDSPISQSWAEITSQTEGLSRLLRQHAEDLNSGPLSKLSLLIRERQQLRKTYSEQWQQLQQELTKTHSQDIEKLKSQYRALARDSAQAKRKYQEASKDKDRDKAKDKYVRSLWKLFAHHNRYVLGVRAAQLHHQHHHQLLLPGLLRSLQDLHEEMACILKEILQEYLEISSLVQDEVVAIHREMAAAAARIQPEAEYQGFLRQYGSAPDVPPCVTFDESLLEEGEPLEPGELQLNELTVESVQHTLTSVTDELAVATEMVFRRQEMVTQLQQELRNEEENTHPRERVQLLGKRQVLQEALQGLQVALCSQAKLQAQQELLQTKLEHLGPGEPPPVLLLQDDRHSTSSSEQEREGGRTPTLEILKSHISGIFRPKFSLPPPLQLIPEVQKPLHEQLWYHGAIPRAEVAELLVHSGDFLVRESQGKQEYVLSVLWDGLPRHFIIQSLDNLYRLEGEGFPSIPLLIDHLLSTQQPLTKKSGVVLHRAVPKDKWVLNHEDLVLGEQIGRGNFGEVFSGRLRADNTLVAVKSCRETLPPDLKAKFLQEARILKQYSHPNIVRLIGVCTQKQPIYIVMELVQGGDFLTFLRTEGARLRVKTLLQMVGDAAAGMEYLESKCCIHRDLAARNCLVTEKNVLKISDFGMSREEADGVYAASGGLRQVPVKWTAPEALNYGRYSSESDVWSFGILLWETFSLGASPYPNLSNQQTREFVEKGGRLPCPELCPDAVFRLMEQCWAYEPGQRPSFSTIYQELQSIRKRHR
Sequence of Grb2 SH2 (P62993 whole entry, looked up): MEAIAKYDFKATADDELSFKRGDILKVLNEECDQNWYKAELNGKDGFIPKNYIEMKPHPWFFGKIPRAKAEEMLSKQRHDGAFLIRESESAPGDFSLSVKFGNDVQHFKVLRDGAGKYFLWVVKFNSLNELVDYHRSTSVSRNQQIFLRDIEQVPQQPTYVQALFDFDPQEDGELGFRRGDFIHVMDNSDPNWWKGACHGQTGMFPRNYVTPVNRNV
Sequence of EPHB1 (P54762 whole entry, looked up): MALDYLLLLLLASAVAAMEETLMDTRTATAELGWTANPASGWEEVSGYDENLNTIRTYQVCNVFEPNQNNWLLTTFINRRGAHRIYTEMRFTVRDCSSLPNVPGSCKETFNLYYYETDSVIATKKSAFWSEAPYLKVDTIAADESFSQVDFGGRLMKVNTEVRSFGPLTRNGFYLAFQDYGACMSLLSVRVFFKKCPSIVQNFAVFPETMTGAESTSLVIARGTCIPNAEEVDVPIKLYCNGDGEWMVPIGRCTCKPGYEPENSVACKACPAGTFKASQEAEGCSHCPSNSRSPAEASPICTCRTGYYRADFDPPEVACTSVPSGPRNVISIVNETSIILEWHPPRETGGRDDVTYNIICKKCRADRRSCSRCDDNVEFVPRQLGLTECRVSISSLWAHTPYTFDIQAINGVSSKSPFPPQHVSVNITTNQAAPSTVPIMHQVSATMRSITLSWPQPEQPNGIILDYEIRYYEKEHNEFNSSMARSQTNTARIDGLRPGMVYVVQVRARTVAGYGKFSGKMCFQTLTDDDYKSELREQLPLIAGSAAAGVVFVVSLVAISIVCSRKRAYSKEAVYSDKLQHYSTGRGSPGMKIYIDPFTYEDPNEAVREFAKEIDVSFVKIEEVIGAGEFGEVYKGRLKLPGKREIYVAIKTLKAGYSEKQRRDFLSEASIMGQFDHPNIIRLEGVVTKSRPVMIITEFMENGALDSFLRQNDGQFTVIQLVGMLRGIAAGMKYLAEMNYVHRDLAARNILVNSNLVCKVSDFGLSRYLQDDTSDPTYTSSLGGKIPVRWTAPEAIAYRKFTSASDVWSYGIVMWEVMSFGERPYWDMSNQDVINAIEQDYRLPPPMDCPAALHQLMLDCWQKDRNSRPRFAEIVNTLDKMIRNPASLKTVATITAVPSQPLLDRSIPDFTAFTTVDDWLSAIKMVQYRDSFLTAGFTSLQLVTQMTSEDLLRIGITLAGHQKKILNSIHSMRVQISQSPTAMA

Sequence	phosphorylation enrichment [1]	phosphorylation enrichment [2]	phosphorylation enrichment [3]	phosphorylation enrichment [4]	phosphorylation enrichment [5]	phosphorylation enrichment [6]	phosphorylation enrichment [7]	phosphorylation enrichment [8]	phosphorylation enrichment [9]	phosphorylation enrichment [10]	phosphorylation enrichment [11]	phosphorylation enrichment [12]	phosphorylation enrichment [13]	SH2 binding enrichment [14]	SH2 binding enrichment [15]	SH2 binding enrichment [16]
FTDPFYDFEIE [ZC3H18_Y372_A368T_YF]	1.37	1.54	0.867	0.665	0.783	1.03	1.54	4.1	0.823	1.66	0.777	1.05	4.96	0.995	0.657	0.441
FTFNSYFMHWV [IGHV1-46_Y51_T49N_YF]	1.55	0.726	0.761	1.51	1.37	1.62	1.59	0.608	0.693	6.35	1.04	0.962	0.555	1.12	1.07	0.795
FTHSDYQFSQR [PKP2_Y166_YF]	0.828	0.435	0.538	0.458	0.646	0.594	0.764	0.63	0.508	0.589	0.383	0.619	0.455	1	0.723	0.62
FTNRNYDLDFD [MYC_Y12_YF]	1.36	0.751	0.587	0.561	0.696	0.543	1.42	0.5	0.634	1.22	0.494	1.01	0.633	0.828	0.659	3.48
FTNRNYDLDYD [MYC_Y12]	1.13	0.666	0.637	0.69	0.591	0.58	1.12	0.607	0.594	1.3	0.58	0.713	0.586	0.799	0.517	3.05
FTRNYYVRAVL [CYBA_Y88]	1.19	0.622	0.609	0.629	0.685	0.526	1.11	0.511	0.566	1.06	0.506	0.976	0.468	0.885	0.78	0.53
FVKEPYIQSRF [HIPK4_Y175_YF]	0.569	0.402	0.452	0.375	0.479	0.43	0.702	0.374	0.402	0.607	0.39	0.447	0.418	0.942	0.785	0.509
FVPSFYHAFSG [ACTN4_Y265_S262P_YF]	0.711	1.23	0.756	0.796	0.824	0.444	0.83	1.48	1.48	0.823	7.34	0.835	1.88	0.993	1.2	0.921
FVSIVCNDSGE [TSC2_Y1650_Y1650C]	1.12	0.644	0.646	0.534	0.921	0.613	1.21	0.476	0.537	1.18	0.464	0.767	0.478	0.583	0.66	0.57
FYNSEYGELSE [FLT4_Y1337]	1.47	0.729	0.956	0.628	0.932	0.684	1.36	1.59	0.997	1.58	0.589	0.986	1.69	0.886	0.805	0.748
GEFFRYLAEVA [YWHAG_Y133_D129E_YF]	0.873	0.46	0.501	0.498	0.767	0.51	1.17	0.575	0.431	1.02	0.438	0.747	0.442	0.924	0.673	0.454
GESQGYDIMEP [MSH2_Y863]	1.14	0.541	0.555	0.424	0.642	0.441	0.94	0.454	0.487	0.827	0.472	0.605	0.419	0.683	0.85	5.63
GFILMYDITNK [RAB3C_Y110_E115K]	1.59	1.15	1.14	0.617	1.17	0.724	2.04	0.529	0.591	1.83	0.835	1.21	0.575	0.944	0.727	0.5
GFSDPYVKAFL [SYT3_Y470_S474F]	0.693	0.595	0.577	0.535	0.729	0.565	1	0.481	0.466	0.898	0.472	0.772	0.497	0.897	0.686	0.51
GFSRHYEDGFP [CTNND1_Y217_YF]	0.619	0.432	0.451	0.352	0.563	0.574	0.739	0.428	0.435	0.608	0.442	0.405	0.335	0.708	0.564	1.44
GGDVIYKGFED [NFU1_Y194]	0.871	0.425	0.491	0.499	0.629	0.395	0.887	3.25	0.951	0.924	0.466	0.663	2.75	0.822	0.625	0.427
GGFTRYCDGKK [PROS1_Y266_C265R_YF]	0.771	0.393	0.315	0.369	0.449	0.436	0.722	0.368	0.403	0.653	0.403	0.601	0.423	0.972	0.881	0.753

Sequence	phosphorylation enrichment [1]	phosphorylation enrichment [2]	phosphorylation enrichment [3]	phosphorylation enrichment [4]	phosphorylation enrichment [5]	phosphorylation enrichment [6]	phosphorylation enrichment [7]	phosphorylation enrichment [8]	phosphorylation enrichment [9]	phosphorylation enrichment [10]	phosphorylation enrichment [11]	phosphorylation enrichment [12]	phosphorylation enrichment [13]	SH2 binding enrichment [14]	SH2 binding enrichment [15]	SH2 binding enrichment [16]
GGFTWYCDGKK [PROS1_Y266_C265W_YF]	1.08	0.651	0.605	0.432	0.833	0.438	1.23	0.328	0.389	1.2	0.29	0.928	0.299	0.761	0.511	0.37
GGYNNYGYGND [HNRNPH3_Y159]	0.802	1.92	3.79	0.66	0.688	0.672	0.849	0.805	0.556	0.808	0.565	1.24	0.456	1.22	0.571	0.934
GHLYAYDWISI [BEST1_Y227]	1.98	6.51	5.04	8.88	6.48	15	3.56	2.24	2.99	0.923	9.38	0.848	2.38	1.56	1.31	1.76
GHNDVYISKHV [GRIN2A_Y1423_E1426K]	0.373	0.254	0.333	0.323	0.364	0.313	0.536	0.423	0.412	0.391	0.347	0.376	0.352	0.79	0.651	0.395
GITVTYTIPKK [UBA5_Y372_A371T]	0.933	0.537	0.557	0.522	0.563	0.497	0.96	0.413	0.54	0.994	1.49	2.12	0.4	0.862	3.64	1.26
GKGGSYSQAAS [HLA-B_Y344_C349S]	0.548	0.47	0.41	0.515	0.52	0.441	0.819	0.362	0.462	0.651	0.493	0.622	0.529	0.609	0.785	0.434
GKPENYRRLDI [VHL_Y175_V170G]	0.452	0.317	0.285	0.335	0.376	0.301	0.598	0.295	0.327	0.539	0.337	0.457	0.353	0.755	0.754	0.508
GKTQQYECKWF [BCR_Y751_D752E_YF]	0.818	0.509	0.603	0.545	0.627	0.572	1.06	0.509	0.569	0.793	0.467	0.614	0.472	0.694	0.529	0.488
GLDGSYLPRDS [SH2D1A_Y29_L31P]	0.663	0.44	0.4	0.418	0.446	0.419	0.624	0.356	0.55	0.534	0.416	0.513	0.418	0.879	0.483	0.557
GLGGVYGGASG [KRT8_Y54_G53V]	0.514	0.445	0.355	0.448	0.52	0.418	0.661	0.566	0.669	0.587	0.445	0.577	0.702	0.705	0.709	0.385
GLQDEYDFKCK [STAT1_Y170_D165G]	1.09	0.509	0.63	0.626	0.555	0.467	1.12	0.453	0.597	1.18	0.453	0.831	0.543	0.709	0.74	0.559
GLRSYYETSKM [MAGED2_Y449]	0.592	0.475	0.584	1.44	1.13	0.465	0.762	0.417	0.656	0.784	0.546	0.534	0.591	0.839	0.638	0.842
GLRYGYGVLGG [KRTAP20-2_Y15]	0.596	0.407	0.398	0.447	0.497	0.432	0.605	0.495	0.443	0.586	0.413	0.487	0.9	0.933	0.769	0.723
GLSAPYVKIHL [SYT2_Y309_D307A]	0.747	0.426	0.423	0.436	0.714	0.527	0.785	0.337	0.443	0.994	0.43	0.509	0.383	1.03	3.06	1.07
GLSDPYVKIHL [SYT2_Y309]	0.693	0.425	0.721	0.546	0.589	0.488	0.993	0.458	0.406	0.787	0.397	0.556	0.376	0.873	1.07	0.836
GLTSTYVGIRK [ROBO1_Y932_A933V]	0.756	0.471	0.506	0.46	0.489	0.374	0.775	0.528	1.67	0.598	0.463	0.565	0.562	0.741	11.5	0.649

From the supplement of paper PMC10065799, “High-throughput profiling of sequence recognition by tyrosine kinases and SH2 domains using bacterial peptide display” (eLife, 2023)
